Laboratory results from patent publication US20210130444A1 (University of California, published 2021).

B1: rAb-53 (recombinant monoclonal NMO-IgG, non-mutated) (antibody, V domains shown)
VH: QVQLQESGAGLVKPSETLSLTCTVSGGSISGHYWNWIRQPPGKGLEWIGYIHYSGSTNYNPSLKSRVTISVDTSKNQFSLKLSSVTAADTAVYYCARAEGRGWSAFYYYYMEVWGKGSTVSVSS
VL: EIVLTQSPGTLSLSPGERATLSCRASQTVRTNYLAWFQQKPGQAPRLLIFGASSRATGIPDRFSGSGSGTDFTLTISRLEPEDFAVYYCQQYGSSPWTFGQGTKVEIKR
notes: Human recombinant IgG made in HEK293 cells; also called NMO-IgG (rAb-53)
B2: rAb-58 (recombinant monoclonal NMO-IgG) (antibody, V domains shown)
VH: VQLVESGGGLVQPGGSLRLSCAASGFTFRGYAMNWVRQAPGKGLEWVASISGSGSITQYADSAKGRFTITRDNSKSTLYAHVSSLRADDTAVYYCAKGDYVFDYWGQGTLVTVSS
VL: DIQMTQSPSALSASVGDTVTITCRASQSIRSWLAWYQQKPGKAPKLLIYKASDLQSGVPSRFSGSGSGTDFTLTISGLQPDDFATYYCQHYNSYPYTFGQGTKVEIRR
notes: Human recombinant IgG made in HEK293 cells

Assays:
[1] = target: Myc-tagged human M1 AQP4 on U87MG cells (human) (UniProt P55087); assay: fluorescence ratio imaging on U87MG cells (FIG. 6C)
Sequence of Myc-tagged human M1 AQP4 on U87MG cells (human) (P55087 whole entry): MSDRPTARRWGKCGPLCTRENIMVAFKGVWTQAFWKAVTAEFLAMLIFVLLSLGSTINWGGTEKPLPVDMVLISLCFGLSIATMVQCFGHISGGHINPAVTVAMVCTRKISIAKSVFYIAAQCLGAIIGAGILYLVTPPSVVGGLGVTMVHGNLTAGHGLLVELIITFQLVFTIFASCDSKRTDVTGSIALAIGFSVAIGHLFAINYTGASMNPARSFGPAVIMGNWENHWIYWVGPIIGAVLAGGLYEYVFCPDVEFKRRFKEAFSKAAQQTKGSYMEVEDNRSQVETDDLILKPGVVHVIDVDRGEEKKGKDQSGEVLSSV

[2] = target: Myc-tagged human M23 AQP4 on U87MG cells (human) (UniProt P55087); assay: as above
Sequence of Myc-tagged human M23 AQP4 on U87MG cells (human) (P55087 whole entry, canonical isoform): as the sequence (P55087 whole entry) above

[3] = target: Myc-tagged human M1 AQP4 on U87MG cells (human) (UniProt P55087); assay: fluorescence ratio imaging on U87MG cells expressing Myc-tagged AQP4, anti-mouse IgG Alexa 488 detection
[4] = target: Myc-tagged human M23 AQP4 on U87MG cells (human) (UniProt P55087); assay: as above
[5] = target: T1, human AQP4 M23 isoform on U87MG cells (human, UniProt P55087 23-323); assay: fluorescence ratio imaging on U87MG cells, single-site binding model
T1 construct: Tetramers that assemble into orthogonal arrays of particles (OAPs); The chain begins at Met-23 of the long isoform; also called M23 AQP4; M23-AQP4
T1 sequence (P55087 23-323 limits assumed): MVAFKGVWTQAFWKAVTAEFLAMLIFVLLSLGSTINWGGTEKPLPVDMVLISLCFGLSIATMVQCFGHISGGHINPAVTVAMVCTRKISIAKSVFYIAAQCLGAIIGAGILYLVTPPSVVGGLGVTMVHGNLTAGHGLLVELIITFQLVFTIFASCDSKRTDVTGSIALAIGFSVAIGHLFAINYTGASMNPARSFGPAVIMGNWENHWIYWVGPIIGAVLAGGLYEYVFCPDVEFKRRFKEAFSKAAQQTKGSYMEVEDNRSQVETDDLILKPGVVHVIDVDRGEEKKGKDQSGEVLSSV

[6] = target: T2, purified recombinant human M1 AQP4 reconstituted in proteoliposomes (human, UniProt P55087 1-323); assay: surface plasmon resonance (Biacore T-100), AQP4 proteoliposomes on L1 chip, antibody injected
T2 construct: 3% (wt/wt) AQP4 in phosphatidylcholine:phosphatidylserine liposomes on a Biacore L1 chip; also called AQP4-reconstituted proteoliposomes; AQP4-proteoliposomes
T2 sequence (P55087 whole entry, form in doubt): as the sequence (P55087 whole entry) above
Procedure: Surface plasmon resonance. […] The mixture was dialyzed (10,000 dalton cut-off) against PBS at 4° C. for 48 h. […] Proteoliposomes were immobilized on a L1 sensor chip (Biacore) with four injections at 10 min/injection at 2 μl/min to achieve 6000 response units of proteoliposomes immobilization. The surface was then washed with two 20 s injections of 50 mM NaOH at 100 μl/min, and checked for surface quality with a 300 s injection of 0.01 mg/ml BSA at 20 μl/min. Flow channel 1 (Fc 1) was immobilized with 0% AQP4 as reference, and Fc 2 contained the AQP4 proteoliposomes. Binding studies were conducted with PBS at a flow rate of 15 μl/min. rAbs in PBS were injected for 80 s followed by a post-injection period of 240 s. Regeneration was performed by injection of 50 mM NaOH at 100 μl/min for 20 s. Binding studies were done in duplicate. Data were analyzed using Biacore T100 Evaluation software.
Binding of each monoclonal recombinant antibody to AQP4 in reconstituted proteoliposomes was measured by surface plasmon resonance.

[7] = target: M23:CCA mixtures (human M23 AQP4 co-expressed with M1-C13A/C17A) on U87MG cells (human) (UniProt P55087); assay: two-colour fluorescence ratio imaging on transiently transfected U87MG cells, rAb-53 titration
[8] = target: T3, human AQP4 M1 isoform on U87MG cells (human, UniProt P55087 1-323); assay: two-colour fluorescence ratio imaging on U87MG cells, rAb titration, single-site binding fit
T3 construct: Water channel; forms individual tetramers, no OAPs; also called M1 AQP4; M1-AQP4
T3 sequence (P55087 whole entry, canonical isoform): as the sequence (P55087 whole entry) above
Source text: (§1) FIG. 4B summarizes concentration-dependence binding curves for three recombinant NMO-IgGs, together with curve fits for a single-site binding model.

[9] = target: T1, human AQP4 M23 isoform on U87MG cells; assay: as above
Source text: as §1

[10] = target: T1, human AQP4 M23 isoform on U87MG cells; assay: two-colour fluorescence ratio imaging on transiently transfected U87MG cells, rAb-53 titration
[11] = target: T1, human AQP4 M23 isoform on U87MG cells; assay: as above; remark: listed apart in the source
[12] = target: T1, human AQP4 M23 isoform on U87MG cells; assay: as above; remark: listed apart in the source

| Molecule | Kd [1] [nM] | Kd [2] [nM] | EC50 (read off the curve) [3] [µg/mL] | EC50 (read off the curve) [4] [µg/mL] | Kd [5] [nM] | Kd [6] [nM] | koff [6] [s⁻¹] | kon [6] [M⁻¹ s⁻¹] | EC50 (read off the curve) [7] [µg/mL] | Kd [8] [nM] | EC50 (read off the curve) [9] [µg/mL] | EC50 (read off the curve) [10] [µg/mL] | EC50 (read off the curve) [11] [µg/mL] | EC50 (read off the curve) [12] [µg/mL] | Kd [9] [nM] |
| --- | --- | --- | --- | --- | --- | --- | --- | --- | --- | --- | --- | --- | --- | --- | --- |
| monoclonal mouse anti-Myc IgG (Covance) (antibody) | 10 | 10 | 2 | 1 |  |  |  |  |  |  |  |  |  |  |  |
| B1 |  |  |  |  | 44 | 27 | 0.00038 | 14000 | 6 | 2800 | ~7 | ~7 | ~7 | ~7 |  |
| B2 |  |  |  |  |  |  |  |  |  | 147 | ~10 |  |  |  | 68 |
